This is an account of results in patent EP4635980A1 (Medigene Immunotherapies GmbH, dated 2025).

Experiment [1] concerns the target T1, ALA-5 mutagenic UNI-tag peptide (DKGEAPKDRFSA).
T1 construct: UNI-tag with alanine at position 5 (V5A); also called Uni-TAG-ALA 5; negative control
T1 peptide: DKGEAPKDRFSA
Put plainly: dot blot, peptide on PVDF membrane.

For experiment [2], the target named is T2, ALA-10 mutagenic UNI-tag peptide (DKGEVPKDRASA).
T2 construct: UNI-tag with alanine at position 10 (F10A); also called Uni-Tag-ALA 10; positive control
T2 peptide: DKGEVPKDRASA
Put plainly: dot blot, peptide on PVDF membrane.

B1: MDG827 monoclonal antibody (MDG827 hybridoma supernatant) (antibody, V domains shown)
VH: EVQLEESGGGLVQPGRSMKLSCAASGFTFSDYGMAWVLQGPTKGLEWVASISYDGNRPYYRDSVKGRFTISRDNAKSTLYLQMESLRSEDTATYYCVKDLFEIGDFDYWGQGVMVTVSS
VL: DVLMTQTPVSLPVSLGGQVSISCRSSQSLVHSDGNTYLHWYLQKPGQSPQLLIYRVSNRFSGVPDRFTGSGSGTDFTLKISRVEPEDLGVYYCLQSTHFPLTFGSGTKLEIKR
notes: detected with anti-IgG2a secondary antibody; Used as hybridoma supernatant; also called MDG827 antibody; MDG827 Ab
Regarding B1, the binding result in experiment [1] was “no binding”; in experiment [2], “binds”.

B2: recombinant monoclonal MDG827 antibody (produced in HEK293 cells) (antibody, V domains shown)
VH: B1 VH
VL: B1 VL
notes: used as culture supernatant; Detected with anti-rat IgG2a; also called recombinantly produced MDG827; anti-TRBC MDG827 antibody
As for B2, the binding result in experiment [1] is listed as “no binding”.
